Experimental findings from the RNAGym collection of RNA variant scans (doi:10.1021/acssynbio.7b00057) are described below.

Sequences and labels used below:
B1: Pistol ribozyme (parent)
chain: GGGUCGUUGUUCCAUAAUCGCGUGGAUAUGGCACGCAAGUUUCUACCGGGCACCGUAAAUGUCCGACUGGAGCCGUUCGGGCGGCUAUAAACAGACCUCAGGCCCGAAGCGUGGCGGCACCUGCCGCCGGUGGUAAAAAAGAUCGGAAGAGCACACGUCU

In this data set the parent is B1. Put plainly: aptazyme ON/OFF ratio, guanine; higher = stronger switching; co-transcriptional cleavage with and without guanine.
Take U7C U8A G9C U10A U11G: the “aptazyme ON/OFF ratio” value worked out at 1.29. Turning to U8C C13G, the “aptazyme ON/OFF ratio” value stood at 1.11. Under U7C U8G U10A U11G C12U stands 1.2; under U7C U8C G9A U10C U11C C12A, 1.25; under U7A G9C U10A, 1.38.

Take U7A U8C G9U U11A C12U: the “aptazyme ON/OFF ratio” value is 1.28. As to U7G U8C G9U C12A C13G, the “aptazyme ON/OFF ratio” value stood at 1.26. Under U7C U8G G9C U10G C12G C13U stands 1.13. Next, U7A U8A U10G U11C C12G: 1.32; U7G U8G G9U U10C U11C C12U C13A: 1.18; U7G U8G G9U U10A C12A C13G: 1.14. Next, U10C U11C C13G: 1.07; U8G G9C U10G C13A: 1.27; U7C U10A U11C C12G C13U: 1.22. Take U7A U8C U10C U11A: the “aptazyme ON/OFF ratio” value came out at 1.16. For G9C U10G C12U C13A, the “aptazyme ON/OFF ratio” value was 1.15. Consider U8C G9U U10C U11G C12G C13A, for which the “aptazyme ON/OFF ratio” value was found to be 1.11. On to U8G G9C U10G C12G C13A, for which the “aptazyme ON/OFF ratio” value worked out at 1.08. Under U7A U8G G9A U11C C12U C13U stands 1.46; under G9U C12G C13A, 1.52; under U7G U8C G9U U10C U11C C13G, 1.08. U7G U8A G9C U10A U11G C12A C13U: the “aptazyme ON/OFF ratio” value stood at 1.04. As for U7A U8G G9C U10G U11A C12G, the “aptazyme ON/OFF ratio” value was determined as 1.39. For the variant U8G G9U U11G C12G C13A, the “aptazyme ON/OFF ratio” value was 1.21. As to U7C U8A U10A U11A C12A, the “aptazyme ON/OFF ratio” value is 1.15. For the variant U8G G9U C12A C13A, the “aptazyme ON/OFF ratio” value turned out to be 1.41. Consider U7C U8A G9U U10C U11G C12A C13A, for which the “aptazyme ON/OFF ratio” value is 1.11. Under U7A U8A U10C U11G C12U stands 1.45; under U7G U8G U10G U11A C12A C13U, 1.23; under U7C U8A G9A U10C C12U C13U, 1.26.

Consider U7G U8G U10C U11G C12A C13U, for which the “aptazyme ON/OFF ratio” value is 1.22. For U7C U8G U10G U11C C12A C13G, the “aptazyme ON/OFF ratio” value turned out to be 1.1. Under G9A U10C U11C C12G C13A stands 1.16; under U7G G9A U10A U11A C12A C13G, 1.13. Turning to U7C U8A G9U U10G U11C C12A C13A, the “aptazyme ON/OFF ratio” value turned out to be 1.18. Under U8A G9U U10A U11C C12A C13G stands 1.2; under U7A U8C G9C U10G U11A C12U C13G, 1.01. Next, G9U C13U: 2.07. Under U8C G9U U10C U11G C13U stands 1.28; under U7G U8C G9U U11A C12G C13G, 1.13. Consider U7C U8A G9U C13U, for which the “aptazyme ON/OFF ratio” value was 1.28.

In the case of U7A U8A G9U U10A U11A C12G, the “aptazyme ON/OFF ratio” value is 1.23.

For the variant U7C G9C U10A U11C C13U, the “aptazyme ON/OFF ratio” value is 1.02. As to U7C U8A U10C C13U, the “aptazyme ON/OFF ratio” value was 3.34. Next, U7A U8A G9U U10G C12A C13A: 1.38; U7G U8G G9C U11G: 2.2; G9A U10A U11C C12G: 1.32. Next, U8C G9A U11A C12U: 1.1; U7A U8C G9A U11C: 1.04. As for U7C U8G G9C U10G U11C C12G, the “aptazyme ON/OFF ratio” value was found to be 1.25. Under U7A U8C G9C U11A C13G stands 1.07; under U7C U8A G9A, 1.22; under U7C U8G G9C U10C U11A C13U, 1.21.

Consider U7C U8G U10C U11A C12A C13G, for which the “aptazyme ON/OFF ratio” value was determined as 1.14.

Turning to U7C G9U U10G C12U C13U, the “aptazyme ON/OFF ratio” value is 1.69. For U7A U8C G9A U10G U11G C12A C13A, the “aptazyme ON/OFF ratio” value came out at 1.39.

Regarding U7C G9U U10G U11C C12U, the “aptazyme ON/OFF ratio” value was 1.14. Under U7G U8G G9C U10A C12G C13U stands 1.04; under U8A G9C U10C C12U C13A, 1.04; under U7A G9C U10C U11A C12U C13G, 1.08. Under U7G U8A G9C U10A U11C C12A C13U stands 1.03; under U7A G9C U10C U11A, 1.07.

On to U7A U8G G9C U10A U11G C12A, for which the “aptazyme ON/OFF ratio” value amounted to 1.07. Next, U7G U8A G9A U10C U11G C13A: 1.14. Next, U8C G9U U10A C12G C13U: 1.17. Turning to G9A U10G U11G C12G, the “aptazyme ON/OFF ratio” value was 1.25. Next, G9C U11C C12A: 1.25; U8G U10A U11G C12U C13A: 1.15. For the variant U7A U8A G9C U10A U11A C12G C13A, the “aptazyme ON/OFF ratio” value is 1.18. Regarding U7C U8C G9C U10C U11C C12G C13G, the “aptazyme ON/OFF ratio” value is 1.19. In the case of U7G U8C G9A U10A U11C C13A, the “aptazyme ON/OFF ratio” value was determined as 1.1. Next, U8A G9U U11G C12G C13U: 1.16; U8G G9C U10C U11A: 1.07. Next, U7G U8G G9A U11A C13G: 1.06; U11C C12U C13U: 1.52; G9U U10G C13U: 1.65. For the variant U7G U8C U11G C12G C13U, the “aptazyme ON/OFF ratio” value came to 1.12. Under U7A U8A U10A U11A C12U C13U stands 1.14; under U8C G9A U10A U11A, 1.47; under U7A U8C G9C U11C C12G C13A, 1.07. U7A U8A G9U U10C C12U C13U: the “aptazyme ON/OFF ratio” value amounted to 1.43. For the variant U7A U8A G9U U10C C12U C13G, the “aptazyme ON/OFF ratio” value is 1.15. On to U7C U8A U10G U11A C12U, for which the “aptazyme ON/OFF ratio” value stood at 1.16. As to U8A G9C U10C C12G C13G, the “aptazyme ON/OFF ratio” value came to 1.03.
